US20250296995A1 (GlaxoSmithKline, published 2025)
Substitutions are numbered along the chain they refer to.

B1: AB-000376 (antibody, V domains shown)
VH: QVQLVESGGGVVQPGRSLRLSCTASGFTFSNYGMHWVRQAPGRALEWVAIIWHDGSNKYYADSVKGRFTISRDNSKNTLYLQMNNVRVEDTAVYHCAKVGGFGELYEAFDFWGQGTLVTVSS
VL: DIQMTQSPSTLSASVGDRVTITCRASHSISNWLAWYQQKPGKAPRLLIYKASSLNSGVPSRFSGSASGTEFTLTISSLQPDDFATYFCQQYNAYWTFGQGTKVEIK
B2: AB001529 (antibody, V domains shown)
VH: QVQLVESGGGVVQPGRSLRLSCVASGFSFRSYGMHWVRQAPGKGLEWVAIIWYDGSNKYYAHSVKGRFTISRDNSKNTLYLQMNSLRAEDTAIYYCAKDGGTETTWGNAFDIWGQGTMVTVSS
VL: B1 VL with H27Q, N31S, R45K, N55E, A66G, S76N, S77N, F87Y, A93S
B3: AB-000325 (antibody, V domains shown)
VH: QVQLVESGGGVVQPGRSLRLSCAASRFPFKNYGMHWVRQAPGKGLEWVALIWFDGSNKFYVDSVEGRFTISRDNSNNMLYLEMNSLRADDTAVYYCARAGRYDDSGYLDYWGQGTLVTVSS
VL: EIVMTQSPATLSVSPGERATLSCRASQSVGSKLAWYQHKPGQAPRLLIYGASTRATGIPARFSGSGSGTEFTLTVSSLQSEDFAVYYCQQYNHWYTFGQGTKLEIK
B4: AB001396 (antibody, V domains shown)
VH: QVQLVESGGGVVQPGRSLRLSCAASGFTFSSYGMHWVRQAPGKGLEWVAIIWYDGSHKYYADSVKGRFTISRDNSKNTLYLQMNSLRAEDTAVYHCARVYQPTYYYDSSRGEAFDIWGQGTMVTVSS
VL: B1 VL with H27Q, N31S, R45K, S53N, N55G, A66G, F87Y, A93S
B5: AB001578 (antibody, V domains shown)
VH: QVQLVESGGGVVQPGRSLRLSCAASGFSFSNYGMHWVRQAPGKGLEWVAIIWYDGSNKYYADSVKGRFTISRDNSKNTLYLQMNSLRAEDTAVYYCARDGTIWDDSRGYILDYWGQGTLVTVSS
VL: EIVLTQSPATLSLSPGERATLSCRASQGVSSYLAWYQQKPGQAPRLLIYDASNRATGIPARFSGSGSGTDFTLTISSLEPEDFAVYYCQQRSNWPPTFGPGTKVDIK
B6: AB001554 (antibody, V domains shown)
VH: QVQLVESGGGVVQPGRSLRLSCAASGFTFSSYGMHWVRQAPGKGLEWVAVIWYDGSNKYHADSVKGRFTISRDNSKNTLYLQMNNLRSEDTAVYYCAKDETLWFGELSDGFDIWGQGTMVTVSS
VL: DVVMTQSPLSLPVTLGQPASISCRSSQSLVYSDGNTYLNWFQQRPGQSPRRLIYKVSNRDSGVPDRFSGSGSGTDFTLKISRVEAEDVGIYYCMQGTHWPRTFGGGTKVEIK
B7: AB001558 (antibody, V domains shown)
VH: QVQLVESGGGVVQPGRSLRLSCAASGFTFSSYGMHWVRQAPGKGLEWVAVIWYDGNNKYYVDSVKGRFTISRDNSKNTLYLQMNSLRAEDTAVYYCARDHDADYVEKWGAFDLWGQGTMVTVSS
VL: B3 VL with G30S, K32N, H38Q, T53A, V75I, H93N, W94G, Y95R, L103V, K106T
B8: AB-000391 (antibody, V domains shown)
VH: EVQLVQSGGGLVQPGGSLRLSCVASGFTLSSYEMNWVRQAPGKGLEWVSFISSSGSKKRYADSVKGRFTVSRDNAKNSLSLQMNSLRAEDTAVYYCARDHSTSDREYGLDVWGQGATVTVSS
VL: DVVMTQSPLSLPVTLGQPASISCRSGQSLLYSDGNTYLYWFQQRPGQSPRRLIYKVSNRDPGVPERFSGSGSGTDFTLKISRVEAEDVGIYFCLQGTHWPYTFGRGTKLEIK

Molecular target: T1, recombinant Plasmodium falciparum circumsporozoite protein (CSP) (Plasmodium falciparum, UniProt Q7K740 21-375)
T1 construct: also called recombinant CSP
T1 sequence (Q7K740 21-375 limits assumed): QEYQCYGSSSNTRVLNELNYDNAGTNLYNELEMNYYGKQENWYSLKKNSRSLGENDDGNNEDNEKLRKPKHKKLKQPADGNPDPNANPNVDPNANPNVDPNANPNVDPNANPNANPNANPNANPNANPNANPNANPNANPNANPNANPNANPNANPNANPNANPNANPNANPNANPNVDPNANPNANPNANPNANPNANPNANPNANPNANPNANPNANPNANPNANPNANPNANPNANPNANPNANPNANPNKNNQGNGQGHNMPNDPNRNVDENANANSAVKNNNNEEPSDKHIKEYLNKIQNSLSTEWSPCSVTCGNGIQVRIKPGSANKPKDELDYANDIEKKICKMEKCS
Test: SPR, recombinant CSP

| Binder | Kd | koff | kon |
| --- | --- | --- | --- |
| B1 | 0.201 nM | 0.000866 s⁻¹ | 4.31e+06 M⁻¹ s⁻¹ |
| B2 | 1.64 nM | 0.00108 s⁻¹ | 660000 M⁻¹ s⁻¹ |
| B3 | 0.0529 nM | 0.00215 s⁻¹ | 4.07e+07 M⁻¹ s⁻¹ |
| B4 | 1.47 nM | 0.000393 s⁻¹ | 268000 M⁻¹ s⁻¹ |
| B5 | 2.64 nM | 0.000977 s⁻¹ | 369000 M⁻¹ s⁻¹ |
| B6 | 2.29 nM | 0.000716 s⁻¹ | 313000 M⁻¹ s⁻¹ |
| B7 | 40.2 nM | 0.000797 s⁻¹ | 19800 M⁻¹ s⁻¹ |
| B8 | 0.616 nM | 0.000535 s⁻¹ | 869000 M⁻¹ s⁻¹ |
